Measured values taken from the supplement of paper PMC10065799, “High-throughput profiling of sequence recognition by tyrosine kinases and SH2 domains using bacterial peptide display” (eLife, 2023).

System: c-Src
Assay: phosphorylation enrichment, bacterial display (enrichment ratio); higher = better substrate or ligand; peptides without Tyr show the background
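Throughout, for SH2 binding enrichment of the phosphorylated peptide, bacterial display: peptide library displayed on the E. coli surface as eCPX fusions, selected cells deep-sequenced, score is each peptide's frequency after selection divided by its frequency in the input.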
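Throughout, for phosphorylation enrichment, bacterial display: 11-residue human phosphosite peptides and single-mutation variants displayed on the E. coli surface, counted by deep sequencing, each peptide's frequency after selection divided by its frequency in the unselected input library; frequency after pTyr selection over input frequency; kinase dosed for 20-30% of maximal phosphorylation in three min.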

Sequence | phosphorylation enrichment
PESIMYRKFTT [NTRK3_Y744] | 0.488
YLGRDYLETLM [DUS3L_Y610] | 0.538
GYSRHCEDGYP [CTNND1_Y217_Y217C] | 0.489
KVWGIYDCQQP [CYP3A7_Y75] | 4.49
HNLDYYKQTTN [FGFR3_Y648_K650Q] | 0.476
LIHLHYIRRDF [BBS4_Y43_K46R_YF] | 0.448
PLQKTYNFNML [SLC4A1_Y553_V557M_YF] | 0.784
YGSGNYNDFGN [HNRNPA2B1_Y300] | 0.643
DGMADYSDPSF [CDC5L_Y459_YF] | 0.501
NELTYYCCKKD [CD59_Y87] | 3.91
IRKAEYPFSSE [ATP2C1_Y452] | 0.365
QMVGMYAFSYM [AVPR2_Y124_S126F] | 1.35
MLEVPYVDRNS [F10_Y384] | 0.395
LLQKTYNYNVL [SLC4A1_Y553_P548L] | 0.851
RLSARYFQGDL [PDK3_Y337_Y334S] | 0.469
CCNHPYLINGA [CHD7_Y1256] | 2.72
SSFSGYIMMPN [LEF1_Y114_YF] | 0.4
LSAPEYGPKLK [TBC1D14_Y46] | 0.412
IQVNAYFSPIH [ADSL_Y432_D430N] | 0.543
ETDSEYVKLAK [C7orf57_Y70] | 0.391
CEHRGYLFLAI [TEK_Y897_YF] | 0.496
QQLVAYYSKHA [SRC_Y232] | 1.02
LADMNYVHCDL [EPHB2_Y742_R745C] | 0.369
QDDYSYPSRQM [LDLR_Y847_G844D] | 1.02
SEKISYVYMKR [SSX7_Y48_L43S] | 0.444
TTSQLYDAVPI [PDPK1_Y9] | 7.33
SLGSPYGQPPR [PDLIM4_Y137] | 0.461
IENKLCGMSDP [RET_Y1062_Y1062C] | 0.412
VNYGAYINNFK [GLB1_Y488_D491N] | 0.876

Biological target: Grb2 SH2 (UniProt P62993)
Assay: SH2 binding enrichment of the phosphorylated peptide, bacterial display (enrichment ratio); higher = better substrate or ligand; peptides without Tyr show the background

Chain of Grb2 SH2 (P62993 whole entry, looked up): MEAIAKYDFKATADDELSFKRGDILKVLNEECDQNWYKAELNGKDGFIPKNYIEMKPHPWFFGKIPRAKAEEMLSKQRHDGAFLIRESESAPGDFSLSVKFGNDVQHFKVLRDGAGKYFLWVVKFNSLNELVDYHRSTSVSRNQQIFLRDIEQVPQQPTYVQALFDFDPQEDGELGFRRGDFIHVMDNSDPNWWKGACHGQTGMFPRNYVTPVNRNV

Sequence | SH2 binding enrichment
PESIMYRKFTT [NTRK3_Y744] | 1.05
YLGRDYLETLM [DUS3L_Y610] | 0.748
GYSRHCEDGYP [CTNND1_Y217_Y217C] | 0.796
KVWGIYDCQQP [CYP3A7_Y75] | 0.78
HNLDYYKQTTN [FGFR3_Y648_K650Q] | 0.656
LIHLHYIRRDF [BBS4_Y43_K46R_YF] | 1.28
PLQKTYNFNML [SLC4A1_Y553_V557M_YF] | 0.713
YGSGNYNDFGN [HNRNPA2B1_Y300] | 0.94
DGMADYSDPSF [CDC5L_Y459_YF] | 0.781
NELTYYCCKKD [CD59_Y87] | 0.78
IRKAEYPFSSE [ATP2C1_Y452] | 0.89
QMVGMYAFSYM [AVPR2_Y124_S126F] | 0.638
MLEVPYVDRNS [F10_Y384] | 0.724
LLQKTYNYNVL [SLC4A1_Y553_P548L] | 1.26
RLSARYFQGDL [PDK3_Y337_Y334S] | 0.77
CCNHPYLINGA [CHD7_Y1256] | 0.804
SSFSGYIMMPN [LEF1_Y114_YF] | 0.999
LSAPEYGPKLK [TBC1D14_Y46] | 1.02
IQVNAYFSPIH [ADSL_Y432_D430N] | 0.964
ETDSEYVKLAK [C7orf57_Y70] | 0.816
CEHRGYLFLAI [TEK_Y897_YF] | 1.49
QQLVAYYSKHA [SRC_Y232] | 0.851
LADMNYVHCDL [EPHB2_Y742_R745C] | 0.823
QDDYSYPSRQM [LDLR_Y847_G844D] | 0.93
SEKISYVYMKR [SSX7_Y48_L43S] | 1.15
TTSQLYDAVPI [PDPK1_Y9] | 0.728
SLGSPYGQPPR [PDLIM4_Y137] | 1.06
IENKLCGMSDP [RET_Y1062_Y1062C] | 0.656
VNYGAYINNFK [GLB1_Y488_D491N] | 1.54

Biological target: SHP2-C SH2
Assay: as above

Sequence | SH2 binding enrichment
PESIMYRKFTT [NTRK3_Y744] | 0.494
YLGRDYLETLM [DUS3L_Y610] | 0.803
GYSRHCEDGYP [CTNND1_Y217_Y217C] | 0.563
KVWGIYDCQQP [CYP3A7_Y75] | 0.761
HNLDYYKQTTN [FGFR3_Y648_K650Q] | 0.883
LIHLHYIRRDF [BBS4_Y43_K46R_YF] | 0.817
PLQKTYNFNML [SLC4A1_Y553_V557M_YF] | 2.38
YGSGNYNDFGN [HNRNPA2B1_Y300] | 0.629
DGMADYSDPSF [CDC5L_Y459_YF] | 0.662
NELTYYCCKKD [CD59_Y87] | 0.766
IRKAEYPFSSE [ATP2C1_Y452] | 0.598
QMVGMYAFSYM [AVPR2_Y124_S126F] | 0.651
MLEVPYVDRNS [F10_Y384] | 0.708
LLQKTYNYNVL [SLC4A1_Y553_P548L] | 0.866
RLSARYFQGDL [PDK3_Y337_Y334S] | 1.01
CCNHPYLINGA [CHD7_Y1256] | 0.704
SSFSGYIMMPN [LEF1_Y114_YF] | 1.03
LSAPEYGPKLK [TBC1D14_Y46] | 0.665
IQVNAYFSPIH [ADSL_Y432_D430N] | 1.34
ETDSEYVKLAK [C7orf57_Y70] | 0.676
CEHRGYLFLAI [TEK_Y897_YF] | 1.19
QQLVAYYSKHA [SRC_Y232] | 0.632
LADMNYVHCDL [EPHB2_Y742_R745C] | 0.83
QDDYSYPSRQM [LDLR_Y847_G844D] | 0.564
SEKISYVYMKR [SSX7_Y48_L43S] | 3.87
TTSQLYDAVPI [PDPK1_Y9] | 0.848
SLGSPYGQPPR [PDLIM4_Y137] | 0.563
IENKLCGMSDP [RET_Y1062_Y1062C] | 0.777
VNYGAYINNFK [GLB1_Y488_D491N] | 1.2

Biological target: c-Src SH2
Assay: as above

Sequence | SH2 binding enrichment
PESIMYRKFTT [NTRK3_Y744] | 0.6
YLGRDYLETLM [DUS3L_Y610] | 0.563
GYSRHCEDGYP [CTNND1_Y217_Y217C] | 0.544
KVWGIYDCQQP [CYP3A7_Y75] | 0.472
HNLDYYKQTTN [FGFR3_Y648_K650Q] | 0.839
LIHLHYIRRDF [BBS4_Y43_K46R_YF] | 0.854
PLQKTYNFNML [SLC4A1_Y553_V557M_YF] | 0.717
YGSGNYNDFGN [HNRNPA2B1_Y300] | 0.68
DGMADYSDPSF [CDC5L_Y459_YF] | 0.557
NELTYYCCKKD [CD59_Y87] | 0.438
IRKAEYPFSSE [ATP2C1_Y452] | 0.471
QMVGMYAFSYM [AVPR2_Y124_S126F] | 0.562
MLEVPYVDRNS [F10_Y384] | 0.457
LLQKTYNYNVL [SLC4A1_Y553_P548L] | 2.2
RLSARYFQGDL [PDK3_Y337_Y334S] | 0.46
CCNHPYLINGA [CHD7_Y1256] | 0.541
SSFSGYIMMPN [LEF1_Y114_YF] | 2.08
LSAPEYGPKLK [TBC1D14_Y46] | 0.5
IQVNAYFSPIH [ADSL_Y432_D430N] | 0.959
ETDSEYVKLAK [C7orf57_Y70] | 0.479
CEHRGYLFLAI [TEK_Y897_YF] | 0.767
QQLVAYYSKHA [SRC_Y232] | 0.62
LADMNYVHCDL [EPHB2_Y742_R745C] | 0.684
QDDYSYPSRQM [LDLR_Y847_G844D] | 1.06
SEKISYVYMKR [SSX7_Y48_L43S] | 0.993
TTSQLYDAVPI [PDPK1_Y9] | 0.485
SLGSPYGQPPR [PDLIM4_Y137] | 0.501
IENKLCGMSDP [RET_Y1062_Y1062C] | 0.476
VNYGAYINNFK [GLB1_Y488_D491N] | 1.72
